Key:
[1] = biological target: TfiA, yeast two-hybrid fusion (Helicobacter pylori); test: two-hybrid; pGBT9 bait and pGAD424 prey in S. cerevisiae PJ69-4A; lacZ reporter, β-galactosidase activity in cell extracts with ONPG
[2] = biological target: TfiT, yeast two-hybrid fusion (Helicobacter pylori); test: as above

Substance	lacZ fold increase relative to the self-activation control of the bait vector [1] [fold]	lacZ reporter activity (Miller units) [1] [Miller units]	lacZ fold increase relative to the self-activation control of the bait vector [2] [fold]	lacZ reporter activity (Miller units) [2] [Miller units]
TfiT, yeast two-hybrid fusion (enzyme)	12.9	60.8	–	–
TfiA, yeast two-hybrid fusion (natural protein)	27.4	129	47.2	89.8

— paper PMC7584586
